Measurements: US20220403022A1 (Merck KGaA, published 2022)
Where “and” joins values, the source holds several entries; their conditions need not be identical. Equal values may be shown once.

Assays:
[1] = target: T1, human TIGIT ECD expressed on the CHO-S cell surface (human, UniProt Q495A1 22-141); experiment: cell-based or functional assay
T1 sequence: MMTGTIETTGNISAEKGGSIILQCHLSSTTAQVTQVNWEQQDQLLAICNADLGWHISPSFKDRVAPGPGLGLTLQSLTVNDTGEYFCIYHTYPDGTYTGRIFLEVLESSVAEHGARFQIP

[2] = target: T2, human TIGIT on cells (primary T cells, transfected HEK293 cells, Jurkat reporter cells, NK cells) (human, UniProt Q495A1 22-244); experiment: flow cytometry, live transfected HEK293 cells
T2 construct: also called TIGIT-transfected HEK293 cells
T2 sequence: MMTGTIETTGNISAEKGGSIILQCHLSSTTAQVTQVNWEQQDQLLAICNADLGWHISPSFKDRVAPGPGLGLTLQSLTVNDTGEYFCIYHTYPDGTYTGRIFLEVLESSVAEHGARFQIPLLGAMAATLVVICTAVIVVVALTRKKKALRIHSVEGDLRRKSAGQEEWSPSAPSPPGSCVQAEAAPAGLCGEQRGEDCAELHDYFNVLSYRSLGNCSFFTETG

[3] = target: T1, human TIGIT ECD expressed on the CHO-S …; experiment: flow cytometry blocking assay on CHO-S-human TIGIT cells, competitor biotinylated human CD155-Fc 2 µg/mL
human TIGIT ECD N70A = target: T3, human TIGIT ECD N70A (human, UniProt Q495A1 22-141); experiment: SPR, antibody captured on anti-human Fc, TIGIT ECD injected
T3 construct: point mutant expressed in E. coli
T3 chain: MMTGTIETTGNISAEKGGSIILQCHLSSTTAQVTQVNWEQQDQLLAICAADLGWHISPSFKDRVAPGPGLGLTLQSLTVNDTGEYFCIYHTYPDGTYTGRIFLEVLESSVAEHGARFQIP

human TIGIT ECD T117A = target: T4, human TIGIT ECD T117A (human, UniProt Q495A1 22-141); experiment: as above
T4 construct: point mutant expressed in E. coli
T4 chain: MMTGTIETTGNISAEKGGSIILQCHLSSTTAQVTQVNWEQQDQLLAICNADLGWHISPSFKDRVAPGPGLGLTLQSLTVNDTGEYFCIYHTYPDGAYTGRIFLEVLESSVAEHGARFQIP

[4] = target: T5, human TIGIT ECD (wild-type, expressed in E. coli) (human, UniProt Q495A1 22-141); experiment: as above
T5 construct: also called huTIGIT; wild-type TIGIT
T5 sequence: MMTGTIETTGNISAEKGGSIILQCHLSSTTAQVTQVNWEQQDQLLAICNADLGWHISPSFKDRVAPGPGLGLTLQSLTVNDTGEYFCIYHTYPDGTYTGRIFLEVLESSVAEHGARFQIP

human TIGIT ECD A71G = target: T6, human TIGIT ECD A71G (human, UniProt Q495A1 22-141); experiment: as above
T6 construct: point mutant expressed in E. coli
T6 chain: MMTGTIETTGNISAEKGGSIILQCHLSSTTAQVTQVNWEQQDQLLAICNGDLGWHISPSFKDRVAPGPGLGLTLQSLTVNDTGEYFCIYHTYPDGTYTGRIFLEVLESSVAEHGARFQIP

human TIGIT ECD Q56A = target: T7, human TIGIT ECD Q56A (human, UniProt Q495A1 22-141); experiment: as above
T7 construct: point mutant expressed in E. coli
T7 chain: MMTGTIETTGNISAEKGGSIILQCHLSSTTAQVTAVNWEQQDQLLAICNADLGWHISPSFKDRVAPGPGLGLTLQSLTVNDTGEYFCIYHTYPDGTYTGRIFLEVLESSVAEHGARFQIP

human TIGIT ECD H111A = target: T8, human TIGIT ECD H111A (human, UniProt Q495A1 22-141); experiment: as above
T8 construct: point mutant expressed in E. coli
T8 chain: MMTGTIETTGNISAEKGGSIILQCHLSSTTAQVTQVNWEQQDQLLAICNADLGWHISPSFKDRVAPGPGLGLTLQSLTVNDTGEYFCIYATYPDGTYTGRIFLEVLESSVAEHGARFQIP

human TIGIT ECD Q53A = target: T9, human TIGIT ECD Q53A (human, UniProt Q495A1 22-141); experiment: as above
T9 construct: point mutant expressed in E. coli
T9 chain: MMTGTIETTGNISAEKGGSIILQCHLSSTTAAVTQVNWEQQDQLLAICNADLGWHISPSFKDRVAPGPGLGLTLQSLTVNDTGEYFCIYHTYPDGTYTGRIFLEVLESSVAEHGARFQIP

human TIGIT ECD D115A = target: T10, human TIGIT ECD D115A (human, UniProt Q495A1 22-141); experiment: as above
T10 construct: point mutant expressed in E. coli
T10 chain: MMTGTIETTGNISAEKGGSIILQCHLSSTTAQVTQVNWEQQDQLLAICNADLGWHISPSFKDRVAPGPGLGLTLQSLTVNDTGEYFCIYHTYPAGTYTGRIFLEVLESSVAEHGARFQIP

[5] = target: T2, human TIGIT on cells (primary T cells, …); experiment: cell-based or functional assay
[6] = target: T1, human TIGIT ECD expressed on the CHO-S …; experiment: flow cytometry blocking assay on CHO-S-human TIGIT cells, competitor biotinylated human CD112-Fc 2 µg/mL
[7] = target: T2, human TIGIT on cells (primary T cells, …); experiment: flow cytometry on CD3+ T cells of human PBMCs
[8] = target: T2, human TIGIT on cells (primary T cells, …); experiment: target occupancy on CD3+ T cells in human whole blood, unoccupied TIGIT detected with biotinylated 3963H03-12, flow cytometry, 9 donors

- ADCC EC50, nM (Donor 1005-4464) [1]: 0.026 nM
- ADCC EC50, nM (Donor 1102-7215) [1]: 0.1 nM
- ADCC EC50, nM (Donor 1106-0557) [1]: 0.059 nM
- fold median fluorescence over vector-only transfected HEK293 cells [2]: 130 fold
- IC50 [3]: 0.165 µg/mL and 1.1 nM
- Kd (human TIGIT ECD N70A): 31.5 nM
- ΔΔGmut (human TIGIT ECD N70A): 1.61 kcal/mol
- Kd (human TIGIT ECD T117A): 1.58 nM
- ΔΔGmut (human TIGIT ECD T117A): -0.17 kcal/mol
- Kd [4]: 2.08 nM
- ΔΔGmut [4]: 0 kcal/mol
- Kd (human TIGIT ECD A71G): 7.02 nM
- ΔΔGmut (human TIGIT ECD A71G): 0.72 kcal/mol
- Kd (human TIGIT ECD Q56A): 33.9 nM
- ΔΔGmut (human TIGIT ECD Q56A): 1.65 kcal/mol
- Kd (human TIGIT ECD H111A): 30.9 nM
- ΔΔGmut (human TIGIT ECD H111A): 1.6 kcal/mol
- ΔΔGmut (human TIGIT ECD Q53A): > 3 kcal/mol
- Kd (human TIGIT ECD D115A): 14.4 nM
- ΔΔGmut (human TIGIT ECD D115A): 1.14 kcal/mol
- EC50 [5]: 12.5 µg/mL
- IC50 [6]: 0.411 µg/mL and 2.8 nM
- EC50 [7]: 0.0852 µg/mL and 0.6 nM
- EC50 [8]: 0.24 µg/mL and 1.6 nM
B1: 3963H03-12 (antibody, human IgG1, kappa, V domains shown)
VH: QVQLVQSGSELKKPGASVKVSCKASGYTFTSYPMNWVRQAPGQGLEWMGWINTNTGNPTYAQGFTGRFVFSLDTSVSTAYLQISSLKAEDTAVYYCARVGGYSVDEYAFDVWGQGTLVTVSS
VL: DIQLTQSPSFLSASVGDRVTITCRASQGISSYLAWYQQKPGKAPKLLIYAASTLQSGVPSRFSGSGSGTEFTLTISSLQPEDFATYYCQQLSSYPTFGGGTKVEIKR
notes: also called anti-TIGIT H03-12; 39631H03-12
